From publication PMC4382335 come the findings set out here.

Assay [1] has as its target papain from papaia latex (papaia (from papaia latex)) (UniProt P00784).
Assay [2] has the same target. The source holds these as a separate data set.
Assay [3] shares this target. This is another data set of the same source.
For assay [4] the target is unchanged. The source holds these as a separate data set.
Assay [5] shares this target. The source holds these as a separate data set.
Assay [6] deals with TcCYS4-His-tag, recombinant cystatin TcCYS4 from Theobroma cacao (Theobroma cacao). The assay can be described thus: SEC; as a2, samples treated in the range from 55 to 75°C for 10 min; 20 uM, 100 mM phosphate buffer pH 6, 150 mM NaCl, Superdex 75 5/150.
Assay [7] has the same target. The assay can be described thus: SEC; TcCYS4 at 20 uM in 100 mM phosphate buffer pH 6, 150 mM NaCl, treated at different temperatures for 10 min (all heat treatments), Superdex 75 5/150, LMW standards. On the technique in general: Size exclusion chromatography separates by hydrodynamic size, large species first.

Sequence of UniProt P00784 (P00784 134-345): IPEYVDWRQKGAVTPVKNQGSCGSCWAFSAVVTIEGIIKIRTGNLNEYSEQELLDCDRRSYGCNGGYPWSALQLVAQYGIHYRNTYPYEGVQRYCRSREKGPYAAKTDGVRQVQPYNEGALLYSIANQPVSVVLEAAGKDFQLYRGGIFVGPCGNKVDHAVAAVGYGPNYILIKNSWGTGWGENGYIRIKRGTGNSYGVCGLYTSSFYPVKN

In turn, “recombinant cystatin TcCYS3 from Theobroma cacao (natural protein)” showed a papain inhibition rate after treatment of the cystatin for 10 min at temperatures up to 90°C in assay [1] of 100%.

As for “recombinant cystatin TcCYS2 from Theobroma cacao (natural protein)”, the papain inhibitory activity after treatment of the cystatin for 10 min at different temperatures up to 90°C; around 52% at 65°C in assay [2] was determined as 65%.

“TcCYS4-His-tag, recombinant cystatin TcCYS4 from Theobroma cacao (natural protein)”: the papain inhibitory activity after treatment of the cystatin for 10 min at different temperatures up to 90°C; 70% of activity at 65°C in assay [3] is > 100%. In assay [4], this substance returned a percentage of inhibition of papain at pH values of the reaction medium from 2 to 10.5 (20% at pH 3, 70% at pH 3.5, about 90% from pH 4 to 9, about 80% at pH 10.5) of 90%. In assay [5], this substance gave a residual activity of papain with TcCYS4 treated at 65°C for 0 to 600 s (plateau after 300 s) of 60%. For the same substance, the stoichiometry N – broadly, the number of molecules, sites or subunits per partner or assembly – in assay [6] was 3; in assay [7], 2.
